Laboratory results taken from the Human Domainome abundance scans (Beltran et al. 2025).
± gives the uncertainty stated by the source.

B1: Zinc finger homeobox protein 4, residues 2183 to 2238; numbered along this chain, Q86UP3 (parent)
chain: SSRTRFTDYQLRVLQDFFDTNAYPKDDEIEQLSTVLNLPTRVIVVWFQNARQKARK

Variants of: B1
Experiment: abundance fitness (aPCA) (normalised: wild type 0, dead -1); higher = more abundant; growth selection in yeast, the domain comes from the species named
Conditions: Homo sapiens

Row | Variant | abundance fitness
1 | SSRTRFTDYQLRVLQDFFDTNAYPKDDEIEQLKTVLNLPTRVIVVWFQNARQKARK | -0.82 ± 0.4
2 | SSRTRFTDYQLRVLQDFFDTNAYPKDDEIEQLETVLNLPTRVIVVWFQNARQKARK | -0.209 ± 0.31
3 | SSRTRFTDYQLRVLQDFFDTNAYPKDDEIEQLCTVLNLPTRVIVVWFQNARQKARK | -0.357 ± 0.19
4 | SSRTRFTDYQLRVLQDFFDTNAYPKDDEIEQLFTVLNLPTRVIVVWFQNARQKARK | -0.897 ± 0.19
5 | SSRTRFTDYQLRVLQDFFDTNAYPKDDEIEQLNTVLNLPTRVIVVWFQNARQKARK | -0.257 ± 0.14
6 | SSRTRFTDYQLRVLQDFFDTNAYPKDDEIEQLLTVLNLPTRVIVVWFQNARQKARK | -0.946 ± 0.25
7 | SSRTRFTDYQLRVLQDFFDTNAYPKDDEIEQLITVLNLPTRVIVVWFQNARQKARK | -1.04 ± 0.21
8 | SSRTRFTDYQLRVLQDFFDTNAYPKDDEIEQLMTVLNLPTRVIVVWFQNARQKARK | -0.35 ± 0.22
9 | SSRTRFTDYQLRVLQDFFDTNAYPKDDEIEQLGTVLNLPTRVIVVWFQNARQKARK | -0.23 ± 0.22
10 | SSRTRFTDYQLRVLQDFFDTNAYPKDDEIEQLHTVLNLPTRVIVVWFQNARQKARK | -0.003 ± 0.21
11 | SSRTRFTDYQLRVLQDFFDTNAYPKDDEIEQLDTVLNLPTRVIVVWFQNARQKARK | -0.884 ± 0.36
12 | SSRTRFTDYQLRVLQDFFDTNAYPKDDEIEFLSTVLNLPTRVIVVWFQNARQKARK | -0.028 ± 0.15
13 | SSRTRFTDYQLRVLQDFFDTNAYPKDDEIEGLSTVLNLPTRVIVVWFQNARQKARK | -0.098 ± 0.072
14 | SSRTRFTDYQLRVLQDFFDTNAYPKDDEIEALSTVLNLPTRVIVVWFQNARQKARK | -0.188 ± 0.094
15 | SSRTRFTDYQLRVLQDFFDTNAYPKDDEIEMLSTVLNLPTRVIVVWFQNARQKARK | -0.212 ± 0.12
16 | SSRTRFTDYQLRVLQDFFDTNAYPKDDEIECLSTVLNLPTRVIVVWFQNARQKARK | -0.221 ± 0.13
17 | SSRTRFTDYQLRVLQDFFDTNAYPKDDEIESLSTVLNLPTRVIVVWFQNARQKARK | -0.042 ± 0.11
18 | SSRTRFTDYQLRVLQDFFDTNAYPKDDEIERLSTVLNLPTRVIVVWFQNARQKARK | -0.023 ± 0.077
19 | SSRTRFTDYQLRVLQDFFDTNAYPKDDEIEILSTVLNLPTRVIVVWFQNARQKARK | -0.316 ± 0.18
20 | SSRTRFTDYQLRVLQDFFDTNAYPKDDEIEYLSTVLNLPTRVIVVWFQNARQKARK | -0.085 ± 0.18
21 | SSRTRFTDYQLRVLQDFFDTNAYPKDDEIEPLSTVLNLPTRVIVVWFQNARQKARK | -0.343 ± 0.14
22 | SSRTRFTDYQLRVLQDFFDTNAYPKDDEIENLSTVLNLPTRVIVVWFQNARQKARK | -0.444 ± 0.22
23 | SSRTRFTDYQLRVLQDFFDTNAYPKDDEIEWLSTVLNLPTRVIVVWFQNARQKARK | -0.184 ± 0.097
24 | SSRTRFTDYQLRVLQDFFDTNAYPKDDEIEKLSTVLNLPTRVIVVWFQNARQKARK | 0.037 ± 0.15

Row | Variant | abundance fitness
25 | SSRTRFTDYQLRVLQDFFDTNAYPKDDEIEHLSTVLNLPTRVIVVWFQNARQKARK | -0.263 ± 0.23
26 | SSRTRFTDYQLRVLQDFFDTNAYPKDDEIETLSTVLNLPTRVIVVWFQNARQKARK | -0.252 ± 0.13
27 | SSRTRFTDYQLRVLQDFFDTNAYPKDDEIELLSTVLNLPTRVIVVWFQNARQKARK | -0.278 ± 0.087
28 | SSRTRFTDYQLRVLQDFFDTNAYPKDDEIEVLSTVLNLPTRVIVVWFQNARQKARK | -0.206 ± 0.079
29 | SSRTRFTDYQLRVLQDFFDTNAYPKDDEIEQWSTVLNLPTRVIVVWFQNARQKARK | -0.399 ± 0.09
30 | SSRTRFTDYQLRVLQDFFDTNAYPKDDEIEQPSTVLNLPTRVIVVWFQNARQKARK | -0.797 ± 0.14
31 | SSRTRFTDYQLRVLQDFFDTNAYPKDDEIEQHSTVLNLPTRVIVVWFQNARQKARK | -1.12 ± 0.29
32 | SSRTRFTDYQLRVLQDFFDTNAYPKDDEIEQVSTVLNLPTRVIVVWFQNARQKARK | -0.235 ± 0.079
33 | SSRTRFTDYQLRVLQDFFDTNAYPKDDEIEQDSTVLNLPTRVIVVWFQNARQKARK | -0.531 ± 0.17
34 | SSRTRFTDYQLRVLQDFFDTNAYPKDDEIEQGSTVLNLPTRVIVVWFQNARQKARK | -0.973 ± 0.098
35 | SSRTRFTDYQLRVLQDFFDTNAYPKDDEIEQNSTVLNLPTRVIVVWFQNARQKARK | -0.683 ± 0.22
36 | SSRTRFTDYQLRVLQDFFDTNAYPKDDEIEQSSTVLNLPTRVIVVWFQNARQKARK | -0.924 ± 0.1
37 | SSRTRFTDYQLRVLQDFFDTNAYPKDDEIEQKSTVLNLPTRVIVVWFQNARQKARK | -0.735 ± 0.19
38 | SSRTRFTDYQLRVLQDFFDTNAYPKDDEIEQASTVLNLPTRVIVVWFQNARQKARK | -0.659 ± 0.097
39 | SSRTRFTDYQLRVLQDFFDTNAYPKDDEIEQESTVLNLPTRVIVVWFQNARQKARK | -0.723 ± 0.12
40 | SSRTRFTDYQLRVLQDFFDTNAYPKDDEIEQTSTVLNLPTRVIVVWFQNARQKARK | -1.05 ± 0.17
41 | SSRTRFTDYQLRVLQDFFDTNAYPKDDEIEQRSTVLNLPTRVIVVWFQNARQKARK | -0.861 ± 0.1
42 | SSRTRFTDYQLRVLQDFFDTNAYPKDDEIEQISTVLNLPTRVIVVWFQNARQKARK | -0.156 ± 0.15
43 | SSRTRFTDYQLRVLQDFFDTNAYPKDDEIEQQSTVLNLPTRVIVVWFQNARQKARK | -0.751 ± 0.15
44 | SSRTRFTDYQLRVLQDFFDTNAYPKDDEIEQYSTVLNLPTRVIVVWFQNARQKARK | -0.118 ± 0.15
45 | SSRTRFTDYQLRVLQDFFDTNAYPKDDEIEQCSTVLNLPTRVIVVWFQNARQKARK | -0.548 ± 0.12
46 | SSRTRFTDYQLRVLQDFFDTNAYPKDDEIEQFSTVLNLPTRVIVVWFQNARQKARK | -0.207 ± 0.11
47 | SSRTRFTDYQLRVLQDFFDTNAYPKDDEIEQMSTVLNLPTRVIVVWFQNARQKARK | -0.019 ± 0.11
